Patent US20230235040A1 (ALMIRALL S A, published 2023)
Changes are numbered by the printed parent chain. Each block holds one binder with its values, some of them ahead of it.

How the values were obtained:
[1] = molecular target: T1, hu-IL-36β (human IL-36β, N-terminally truncated active form R5-E157) (human); experiment: ELISA, yeast Fab supernatant, anti-Fab-HRP
T1 construct: Purification tag cleaved off; Biotinylated where captured; also called hu-IL-36b
T1 chain: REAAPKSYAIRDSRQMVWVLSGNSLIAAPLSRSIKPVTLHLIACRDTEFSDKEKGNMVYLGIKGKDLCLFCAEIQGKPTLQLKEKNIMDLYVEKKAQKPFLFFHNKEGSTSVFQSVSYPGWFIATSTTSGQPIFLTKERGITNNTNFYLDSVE

[2] = molecular target: T1, hu-IL-36β (human IL-36β, N-terminally …); experiment: cell-based or functional assay
[3] = molecular target: T1, hu-IL-36β (human IL-36β, N-terminally …); experiment: cell-based or functional assay
[4] = molecular target: T1, hu-IL-36β (human IL-36β, N-terminally …); experiment: phage competition ELISA: Fab on phage, soluble hu-IL-36β titrated against coated hu-IL-36β
Description: Selected phages with top binding signal were purified to perform phage competition ELISA. The optimal phage concentration was incubated with serially-diluted human IL-36β in ELISA buffer (0.5% BSA and 0.05% TWEEN©20 in PBS) in NUNC F plate for two hours. 80 μl of the mixture was transferred to human IL-36β coated wells for 15 min to capture unbound phage. The plate was washed with wash buffer (0.05% TWEEN©20 in PBS), and HRP-conjugated anti-M13 antibody (Sino biological, Cat #11973-MM05-H-50) was added in ELISA buffer for 30 min. The plate was incubated at room temperature for one hour with agitation, washed six times with wash buffer and developed for 15 minutes by addition of 100 μL/well of 1 Step Turbo™ B substrate (ThermoFisher, Cat #34022). The enzymatic reaction was stopped using 50 μL/well of 2N H₂SO₄. Plates were analyzed using a Perkin Elmer plate reader (Envision 2103 multilabel reader) at 450 nm. The absorbance at 450 nm was plotted as a function of antigen concentration in solution to determine phage IC₅₀. […] Real affinities for purified Fab molecules for the phage variants were also measured using Biacore (method described in detail in section E below).

[5] = molecular target: T1, hu-IL-36β (human IL-36β, N-terminally …); experiment: SPR (Biacore), purified Fab, biotinylated hu-IL-36β captured
[6] = molecular target: T1, hu-IL-36β (human IL-36β, N-terminally …); experiment: SPR (Biacore 8K), biotinylated hu-IL-36β captured on CAP chip, Fab injected, 37°C
Description: (§1) Briefly, a 1:4 dilution of Biotin CAPture Reagent (GE) into HBS-EP buffer (0.01 M HEPES pH 7.4, 0.15 M NaCl, 3 mM EDTA, 0.005% Surfactant P20) was applied to a CAP sensor chip at 2 uL/min flow rate. For kinetics measurements, 6 nM biotinylated human IL-36β was captured at 10 uL/min to achieve ˜50 response units in the second flow cell (FC2). FC1 was kept as a reference. […] The sensorgram was recorded and subject to reference and buffer subtraction before evaluating by BIACORE® 8K Evaluation Software (version 1.1.1.7442). Association rates (kₒₙ) and dissociation rates (koff) were calculated using a simple one-to-one Langmuir binding model.

[7] = molecular target: T1, hu-IL-36β (human IL-36β, N-terminally …); experiment: cell-based or functional assay
[8] = molecular target: T2, hu-IL-36γ (human IL-36γ, N-terminally truncated active form S18-D169) (human, UniProt Q9NZH8 18-169); experiment: phage competition ELISA: Fab on phage, soluble hu-IL-36γ titrated against coated hu-IL-36γ
T2 construct: Purification tag cleaved off; Biotinylated where captured; also called hu-IL-36g
T2 sequence: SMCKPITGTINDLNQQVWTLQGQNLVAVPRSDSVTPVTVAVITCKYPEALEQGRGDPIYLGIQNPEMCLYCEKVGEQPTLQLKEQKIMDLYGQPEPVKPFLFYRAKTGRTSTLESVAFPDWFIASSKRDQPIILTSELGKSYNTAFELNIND
Description: (§2) Selected phages with top binding signal were purified to perform phage competition ELISA. The optimal phage concentration was incubated with serially-diluted human IL-36α or human IL-36γ in ELISA buffer in NUNC F plate for two hours. 80 μL of the mixture was transferred to human IL-36α or human IL-36γ coated wells for 15 min to capture unbound phage. The plate was washed with wash buffer (0.05% TWEEN®20 in PBS), and HRP-conjugated anti-M13 antibody (Sino biological, Cat #11973-MM05-H-50) was added in ELISA buffer for 30 min. The plates were washed and developed as described above. The absorbance at 450 nm was plotted as a function of antigen concentration in solution to determine phage IC50.

[9] = molecular target: T3, hu-IL-36α (human IL-36α, N-terminally truncated active form K6-F158) (human, UniProt Q9UHA7 6-158); experiment: phage competition ELISA: Fab on phage, soluble hu-IL-36α titrated against coated hu-IL-36α
T3 construct: Purification tag cleaved off; Biotinylated where captured (SPR, some ELISAs); also called hu-IL-36a
T3 sequence: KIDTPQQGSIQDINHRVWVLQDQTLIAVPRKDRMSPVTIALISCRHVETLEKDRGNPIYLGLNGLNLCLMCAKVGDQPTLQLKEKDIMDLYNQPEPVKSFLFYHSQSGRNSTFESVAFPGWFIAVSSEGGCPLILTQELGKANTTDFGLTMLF
Description: as §2

[10] = molecular target: T3, hu-IL-36α (human IL-36α, N-terminally …); experiment: SPR (Biacore 8K), biotinylated hu-IL-36 captured on CAP chip, Fab injected, 37°C
Description: as §1, with “3” for “6”, “IL-36α and human IL-36γ” for “IL-36β”

[11] = molecular target: T2, hu-IL-36γ (human IL-36γ, N-terminally …); experiment: as above
Description: as §1, with “3” for “6”, “IL-36α and human IL-36γ” for “IL-36β”

[12] = molecular target: T3, hu-IL-36α (human IL-36α, N-terminally …); experiment: cell-based or functional assay
[13] = molecular target: T2, hu-IL-36γ (human IL-36γ, N-terminally …); experiment: cell-based or functional assay
[14] = molecular target: T1, hu-IL-36β (human IL-36β, N-terminally …); experiment: SPR (Biacore 8K), biotinylated IL-36 captured on CAP chip, Fab injected, 25°C
Description: (§3) Briefly, a 1:4 dilution of Biotin CAPture Reagent (GE Healthcare, Chicago, Ill., USA)) into HBS-EP buffer (GE Healthcare, Chicago, Ill., USA; 0.01 M HEPES pH 7.4, 0.15 M NaCl, 3 mM EDTA, 0.005% Surfactant P20) was applied to a CAP sensor chip at 2 μL/min flow rate. […] FC1 was kept as a reference. […] The sensorgram was recorded and subject to reference and buffer subtraction before data analysis with the BIACORE® 8K Evaluation Software (GE Healthcare, Chicago, Ill., USA; version 1.1.1.7442). Association rates (kₒₙ) and dissociation rates (koff) were calculated using a simple one-to-one Langmuir binding model. The equilibrium dissociation constant (KD) was calculated as the ratio of koff/kₒₙ.

[15] = molecular target: T1, hu-IL-36β (human IL-36β, N-terminally …); experiment: SPR (Biacore 8K), biotinylated IL-36 captured on CAP chip, Fab injected, 37°C
Description: as §3

B3: mAb6_2 Fab (Fab, V domains shown)
VH: ELQLQESGPGLVKPSETLSLTCTVSGGSITSSNYYWGWIRQPPGKGLEWIGSIDYTGSTYYNPSLKSRVTISVDTSKNQFSLKLSSVTAADTAVYYCARGKYYETYLGFDVWGQGTLVTVSS
VL: ESVLTQPPSVSGAPGQRVTISCTGSSSNIGAHYDVHWYQQLPGTAPKLLIYGNDNRPSGVPDRFSGSKSGTSASLAITGLQAEDEADYYCQSYDYSLSGYVFGGGTKLTVL
- apparent IC50 (pooled screen) [4]: 8.57 nM
- apparent Kd (pooled screen) [5]: 40.1 nM
- apparent Kd (pooled screen) [6]: 14.7 nM
- apparent koff (pooled screen) [6]: 0.00128 s⁻¹
- apparent kon (pooled screen) [6]: 87200 M⁻¹ s⁻¹
- IC50, IL-36-stimulated IL-8 secretion by HaCat cells [7]: 3.19 nM

B4: mAb2 Fab (Fab, V domains shown)
VH: ELQLQESGPGLVKPSETLSLTCTVSGGSISTSSYYWGWIRQPPGKGLEWIGSIYYTGNTYYNPSLKSRVTISVDTSKNQFSLKLSSVTAADTAVYYCARVRYGVGVPRYFDPWGQGTLVTVSS
VL: B3 VL
- apparent IC50 (pooled screen) [8]: 3.2 nM
- apparent IC50 (pooled screen) [9]: 1.2 nM
- apparent Kd (pooled screen) [10]: 0.23 nM
- apparent koff (pooled screen) [10]: 0.000264 s⁻¹
- apparent kon (pooled screen) [10]: 1.16e+06 M⁻¹ s⁻¹
- apparent Kd (pooled screen) [11]: 0.41 nM
- apparent koff (pooled screen) [11]: 0.000574 s⁻¹
- apparent kon (pooled screen) [11]: 1.39e+06 M⁻¹ s⁻¹
- IC50, IL-36-stimulated IL-8 secretion by HaCat cells [12]: 0.3 nM
- IC50, IL-36-stimulated IL-8 secretion by HaCat cells [13]: 0.96 nM

B5: mAb2.11 Fab (Fab, V domains shown)
VH: B4 VH with T31E, N58E, N62A, V100L
VL: B3 VL
notes: Recombinant Fab with 8xHis tag (Expi293F)
- Kd [10]: 0.13 nM
- koff [10]: 0.000244 s⁻¹
- kon [10]: 1.91e+06 M⁻¹ s⁻¹
- Kd [11]: 0.11 nM
- koff [11]: 0.000214 s⁻¹
- kon [11]: 1.92e+06 M⁻¹ s⁻¹
- IC50, IL-36-stimulated IL-8 secretion by HaCat cells [12]: 0.42 nM
- IC50, IL-36-stimulated IL-8 secretion by HaCat cells [13]: 1.05 nM

B6: mAb2.10 Fab (Fab, V domains shown)
VH: B4 VH with T31D, N58E, N62A, Y109H
VL: B3 VL
notes: as for B5
- Kd [10]: 0.15 nM
- koff [10]: 0.000222 s⁻¹
- kon [10]: 1.49e+06 M⁻¹ s⁻¹
- Kd [11]: 0.13 nM
- koff [11]: 0.00018 s⁻¹
- kon [11]: 1.37e+06 M⁻¹ s⁻¹
- IC50, IL-36-stimulated IL-8 secretion by HaCat cells [12]: 0.38 nM
- IC50, IL-36-stimulated IL-8 secretion by HaCat cells [13]: 1.09 nM

Next, values leading:

- ELISA OD450 [1]: 2.63 OD450
- % Inhibition, HEK-Blue IL-36R SEAP reporter assay [2]: 85%
B1: mAb8.0 Fab (yeast clone culture supernatant) (Fab, V domains shown)
VH: QVQLVQSGAEVKKPGSSVKVSCKASGGTFSNYAISWVRQAPGQGLEWMGGILPILGTVDYAQKFQGRVTITADESTSTAYMELSSLRSEDTAVYYCAREPWYRLGAFDVWGQGTLVTVSS
VL: DIQMTQSPSSLSASVGDRVTITCRASQTIYKYLNWYQQKPGKAPKLLIYAASSLQSGVPSRFSGSGSGTDFTLTISSLQPEDFATYYCQQYSSIPYTFGQGTKVEIK
notes: Human Fab secreted by the yeast clone, not purified

- IC50, HEK-Blue IL-36R SEAP reporter assay [3]: 0.34 nM
B2: mAb8.0 recombinant human IgG1 (antibody, V domains shown)
VH: B1 VH
VL: B1 VL

- Kd [14]: 1.79 nM
- koff [14]: 7.23e-05 s⁻¹
- kon [14]: 40400 M⁻¹ s⁻¹
- Kd [15]: 1.93 nM
- koff [15]: 0.000118 s⁻¹
- kon [15]: 61100 M⁻¹ s⁻¹
B7: mAb6.0 Fab (purified, lysyl-C cleaved from recombinant IgG1) (Fab, V domains shown)
VH: B3 VH with E1Q
VL: B3 VL with E1Q, H32G, D54T, Y95I, Y100W
notes: also called purified mAb6.0 Fab

- IC50, HEK-Blue IL-36R SEAP reporter assay [3]: 1.4 nM
B8: mAb7.0 recombinant human IgG1 (antibody, V domains shown)
VH: QVQLVESGGGVVQPGRSLRLSCAASGFTFSSYGMHWVRQAPGKGLEWVAVISYGGSERYYADSVKGRFTISRDNSKNTLYLQMNSLRAEDTAVYYCAREPWYSSRGWTGYGFDVWGQGTLVTVSS
VL: EIVLTQSPGTLSLSPGERATLSCRASQSVSSNYLAWYQQKPGQAPKLLIYSASSLQSGVPSRFSGSGSGTDFTLTISSLQPEDFATYYCQQTYSYPPTFGQGTKVEIK
